The results in this text go back to article PMC10786891, “Massively parallel profiling of RNA-targeting CRISPR-Cas13d”.

T1: EsCas13d, nuclease-dead (Eubacterium siraeum, UniProt B0MS50, R295A;H300A;R849A;H854A)
T1 sequence: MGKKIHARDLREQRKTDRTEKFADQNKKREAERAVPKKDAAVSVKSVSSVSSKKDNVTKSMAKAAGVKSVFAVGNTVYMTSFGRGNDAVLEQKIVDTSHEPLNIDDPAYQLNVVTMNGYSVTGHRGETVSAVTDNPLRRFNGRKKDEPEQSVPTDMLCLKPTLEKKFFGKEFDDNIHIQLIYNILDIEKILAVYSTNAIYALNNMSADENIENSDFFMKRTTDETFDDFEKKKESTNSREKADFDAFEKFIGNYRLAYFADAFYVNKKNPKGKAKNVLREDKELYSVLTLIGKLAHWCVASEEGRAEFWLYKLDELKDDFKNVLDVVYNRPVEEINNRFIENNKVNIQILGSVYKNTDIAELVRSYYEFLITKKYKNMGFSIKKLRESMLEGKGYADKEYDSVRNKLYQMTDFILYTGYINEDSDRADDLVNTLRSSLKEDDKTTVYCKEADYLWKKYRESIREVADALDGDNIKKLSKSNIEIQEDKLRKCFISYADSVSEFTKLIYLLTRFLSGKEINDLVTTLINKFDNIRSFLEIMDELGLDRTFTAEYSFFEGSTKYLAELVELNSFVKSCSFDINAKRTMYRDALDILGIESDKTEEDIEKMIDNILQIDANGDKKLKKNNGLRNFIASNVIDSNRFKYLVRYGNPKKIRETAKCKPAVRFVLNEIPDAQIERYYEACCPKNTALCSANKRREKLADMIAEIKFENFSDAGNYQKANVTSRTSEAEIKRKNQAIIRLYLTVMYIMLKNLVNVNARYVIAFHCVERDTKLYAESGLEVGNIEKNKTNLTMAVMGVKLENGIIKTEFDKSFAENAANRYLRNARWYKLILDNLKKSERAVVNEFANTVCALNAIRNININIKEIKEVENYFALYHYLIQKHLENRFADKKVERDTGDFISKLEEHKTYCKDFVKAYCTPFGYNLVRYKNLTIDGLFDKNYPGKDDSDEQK

B1: target 1 A1U,A16U (mixed)
RNA 1: CACCCGUGCAAAAAUGCAGGGGUCUAAAACUGAGCGGAUAACCUCUCUAUGG
RNA 2: GGGAAUGGAUCCACAUCUACGAAUUCGUACCAUAGUGAGGUUAUCCGCUCUCCGAGAUCGGAAGAGCACACGU
B2: target 1 U10A,G12C (mixed)
RNA 1: CACCCGUGCAAAAAUGCAGGGGUCUAAAACUGAGCGGAUAACCUCUCUAUGG
RNA 2: GGGAAUGGAUCCACAUCUACGAAUUCGUACCAUAGAGAGCUAAUCCGCUCACCGAGAUCGGAAGAGCACACGU
B3: target 2 MT 5'PFS GUG 3'PFS UGC (mixed)
RNA 1: CACCCGUGCAAAAUUGCAGGGGUCUAAAACCUUCUCCAAAUUGUUUCAUCCU
RNA 2: GGGAAUGGAUCCACAUCUACGAAUUCGUGAGGAUGAAACAAUUUGGAGAAGUGCAGAUCGGAAGAGCACACGU
B4: target 2 MT 5'PFS AAG 3'PFS AAC (mixed)
RNA 1: CACCCGUGCAAAAUUGCAGGGGUCUAAAACCUUCUCCAAAUUGUUUCAUCCU
RNA 2: GGGAAUGGAUCCACAUCUACGAAUUCAAGAGGAUGAAACAAUUUGGAGAAGAACAGAUCGGAAGAGCACACGU
B5: target 2 MT 5'PFS AAU 3'PFS AUU (mixed)
RNA 1: CACCCGUGCAAAAUUGCAGGGGUCUAAAACCUUCUCCAAAUUGUUUCAUCCU
RNA 2: GGGAAUGGAUCCACAUCUACGAAUUCAAUAGGAUGAAACAAUUUGGAGAAGAUUAGAUCGGAAGAGCACACGU
B6: target 2 MT 5'PFS GAA 3'PFS UGU (mixed)
RNA 1: CACCCGUGCAAAAUUGCAGGGGUCUAAAACCUUCUCCAAAUUGUUUCAUCCU
RNA 2: GGGAAUGGAUCCACAUCUACGAAUUCGAAAGGAUGAAACAAUUUGGAGAAGUGUAGAUCGGAAGAGCACACGU
B7: target 2 MT 5'PFS AGA 3'PFS UUU (mixed)
RNA 1: CACCCGUGCAAAAUUGCAGGGGUCUAAAACCUUCUCCAAAUUGUUUCAUCCU
RNA 2: GGGAAUGGAUCCACAUCUACGAAUUCAGAAGGAUGAAACAAUUUGGAGAAGUUUAGAUCGGAAGAGCACACGU
B8: target 2 MT 5'PFS GCU 3'PFS UCC (mixed)
RNA 1: CACCCGUGCAAAAUUGCAGGGGUCUAAAACCUUCUCCAAAUUGUUUCAUCCU
RNA 2: GGGAAUGGAUCCACAUCUACGAAUUCGCUAGGAUGAAACAAUUUGGAGAAGUCCAGAUCGGAAGAGCACACGU
B9: target 2 MT 5'PFS UUA 3'PFS CUA (mixed)
RNA 1: CACCCGUGCAAAAUUGCAGGGGUCUAAAACCUUCUCCAAAUUGUUUCAUCCU
RNA 2: GGGAAUGGAUCCACAUCUACGAAUUCUUAAGGAUGAAACAAUUUGGAGAAGCUAAGAUCGGAAGAGCACACGU
B10: target 2 MT 5'PFS UUA 3'PFS CUG (mixed)
RNA 1: CACCCGUGCAAAAUUGCAGGGGUCUAAAACCUUCUCCAAAUUGUUUCAUCCU
RNA 2: GGGAAUGGAUCCACAUCUACGAAUUCUUAAGGAUGAAACAAUUUGGAGAAGCUGAGAUCGGAAGAGCACACGU
B11: target 2 MT 5'PFS UUA 3'PFS CUU (mixed)
RNA 1: CACCCGUGCAAAAUUGCAGGGGUCUAAAACCUUCUCCAAAUUGUUUCAUCCU
RNA 2: GGGAAUGGAUCCACAUCUACGAAUUCUUAAGGAUGAAACAAUUUGGAGAAGCUUAGAUCGGAAGAGCACACGU
B12: target 2 MT 5'PFS CCA 3'PFS CCU (mixed)
RNA 1: CACCCGUGCAAAAUUGCAGGGGUCUAAAACCUUCUCCAAAUUGUUUCAUCCU
RNA 2: GGGAAUGGAUCCACAUCUACGAAUUCCCAAGGAUGAAACAAUUUGGAGAAGCCUAGAUCGGAAGAGCACACGU
B13: target 2 MT 5'PFS AAU 3'PFS AUC (mixed)
RNA 1: CACCCGUGCAAAAUUGCAGGGGUCUAAAACCUUCUCCAAAUUGUUUCAUCCU
RNA 2: GGGAAUGGAUCCACAUCUACGAAUUCAAUAGGAUGAAACAAUUUGGAGAAGAUCAGAUCGGAAGAGCACACGU
B14: target 2 MT 5'PFS GAA 3'PFS UGC (mixed)
RNA 1: CACCCGUGCAAAAUUGCAGGGGUCUAAAACCUUCUCCAAAUUGUUUCAUCCU
RNA 2: GGGAAUGGAUCCACAUCUACGAAUUCGAAAGGAUGAAACAAUUUGGAGAAGUGCAGAUCGGAAGAGCACACGU
B15: target 2 MT 5'PFS UUA 3'PFS UAC (mixed)
RNA 1: CACCCGUGCAAAAUUGCAGGGGUCUAAAACCUUCUCCAAAUUGUUUCAUCCU
RNA 2: GGGAAUGGAUCCACAUCUACGAAUUCUUAAGGAUGAAACAAUUUGGAGAAGUACAGAUCGGAAGAGCACACGU
B16: target 2 MT 5'PFS AGA 3'PFS UUA (mixed)
RNA 1: CACCCGUGCAAAAUUGCAGGGGUCUAAAACCUUCUCCAAAUUGUUUCAUCCU
RNA 2: GGGAAUGGAUCCACAUCUACGAAUUCAGAAGGAUGAAACAAUUUGGAGAAGUUAAGAUCGGAAGAGCACACGU
B17: target 2 MT 5'PFS AGU 3'PFS CUG (mixed)
RNA 1: CACCCGUGCAAAAUUGCAGGGGUCUAAAACCUUCUCCAAAUUGUUUCAUCCU
RNA 2: GGGAAUGGAUCCACAUCUACGAAUUCAGUAGGAUGAAACAAUUUGGAGAAGCUGAGAUCGGAAGAGCACACGU
B18: target 2 MT 5'PFS AGA 3'PFS UUG (mixed)
RNA 1: CACCCGUGCAAAAUUGCAGGGGUCUAAAACCUUCUCCAAAUUGUUUCAUCCU
RNA 2: GGGAAUGGAUCCACAUCUACGAAUUCAGAAGGAUGAAACAAUUUGGAGAAGUUGAGAUCGGAAGAGCACACGU
B19: target 2 MT 5'PFS AAU 3'PFS AUA (mixed)
RNA 1: CACCCGUGCAAAAUUGCAGGGGUCUAAAACCUUCUCCAAAUUGUUUCAUCCU
RNA 2: GGGAAUGGAUCCACAUCUACGAAUUCAAUAGGAUGAAACAAUUUGGAGAAGAUAAGAUCGGAAGAGCACACGU
B20: target 2 MT 5'PFS AGU 3'PFS CUC (mixed)
RNA 1: CACCCGUGCAAAAUUGCAGGGGUCUAAAACCUUCUCCAAAUUGUUUCAUCCU
RNA 2: GGGAAUGGAUCCACAUCUACGAAUUCAGUAGGAUGAAACAAUUUGGAGAAGCUCAGAUCGGAAGAGCACACGU
B21: target 2 MT 5'PFS AUU 3'PFS UUC (mixed)
RNA 1: CACCCGUGCAAAAUUGCAGGGGUCUAAAACCUUCUCCAAAUUGUUUCAUCCU
RNA 2: GGGAAUGGAUCCACAUCUACGAAUUCAUUAGGAUGAAACAAUUUGGAGAAGUUCAGAUCGGAAGAGCACACGU
B22: target 2 MT 5'PFS AGA 3'PFS UUC (mixed)
RNA 1: CACCCGUGCAAAAUUGCAGGGGUCUAAAACCUUCUCCAAAUUGUUUCAUCCU
RNA 2: GGGAAUGGAUCCACAUCUACGAAUUCAGAAGGAUGAAACAAUUUGGAGAAGUUCAGAUCGGAAGAGCACACGU
B23: target 2 MT 5'PFS UUA 3'PFS CUC (mixed)
RNA 1: CACCCGUGCAAAAUUGCAGGGGUCUAAAACCUUCUCCAAAUUGUUUCAUCCU
RNA 2: GGGAAUGGAUCCACAUCUACGAAUUCUUAAGGAUGAAACAAUUUGGAGAAGCUCAGAUCGGAAGAGCACACGU

This data set concerns the target T1, EsCas13d, nuclease-dead. The data set is described as follows: crRNA (strand 1, pre-loaded); Mg2+; 40 mM Tris-HCl pH 7.5, 150 mM NaCl, 6 mM MgCl2, 1 mM DTT, 0.1% Tween-20, 0.2 mg/ml BSA; 25 C; 10 min per concentration, then washed. Particulars: tags: His6-TwinStrep-SUMO cleaved; N-terminal SNAP kept (SNAP-Surface 488); label: 3' end held by stalled T7 RNA polymerase.
Usually Kd stands for a measure of binding affinity in units of concentration. A higher Kd goes with a looser complex. As to B1, binding was put at a Kd of 70 ± 13 nM.
To B2 belongs 8.6 ± 1 nM.
As for B3, the Kd turned out to be 17.1 ± 2.5 nM.
To B4 belongs 3.1 ± 1 nM; to B5, 5.3 ± 0.6 nM; to B6, 18 ± 2.7 nM.
To B7 belongs 13.2 ± 2.6 nM; to B8, 40 ± 8 nM; to B9, 20.9 ± 3.3 nM.
As for B10, the affinity, expressed as Kd, was 24 ± 2.7 nM.
Next, B11: 36 ± 6 nM.
In the case of B12, the Kd was determined as 4.9 ± 0.6 nM. Compared with the last molecule, the Kd is about 7.3-fold lower.
B13 came in with a Kd of 6.3 ± 0.7 nM.
For B14, the dissociation constant (Kd) worked out at 13.2 ± 2.6 nM.
To B15 belongs 37 ± 7 nM; to B16, 11.7 ± 2.2 nM.
Next, B17: 11.4 ± 1.5 nM.
Next, B18: 6.1 ± 1 nM; B19: 4.5 ± 0.9 nM; B20: around 50 nM.
Consider B21, for which the Kd was found to be 23 ± 5 nM.
Next, B22: 18 ± 5 nM.
Next, B23: 55 ± 16 nM.
